# Measurements taken from the Immune Epitope Database (IEDB).
# Legend:
# HLA-B*15:01 = test: IEDB peptide-MHC binding, purified MHC/direct/fluorescence; filed as Kd, often an IC50 or EC50 that approximates it; ≥ and ≤ were set here for values at or beyond the usual limits of such assays
# HLA-A*02:01 = test: as above
# HLA-A*29:02 = test: as above
# HLA-A*02:19 = test: as above
# HLA-A*02:11 = test: as above
# HLA-A*03:01 = test: as above
# HLA-B*51:01 [1] = test: as above
# HLA-B*15:17 [2] = test: as above
# HLA-B*57:01 = test: as above
# HLA-A*23:01 = test: as above
# HLA-A*69:01 = test: as above
# HLA-B*27:03 [3] = test: as above
# HLA-A*24:03 = test: as above
# HLA-A*02:03 = test: as above
# HLA-B*46:01 = test: as above
# HLA-A*68:02 = test: as above
# HLA-B*18:01 = test: as above
# HLA-A*02:12 = test: as above
# HLA-A*26:01 [4] = test: as above
# HLA-A*02:16 = test: as above
# HLA-B*39:01 [5] = test: as above; conditions: source organism: Vibrio cholerae O395
# HLA-B*51:01 [6] = test: IEDB peptide-MHC binding, purified MHC/competitive/fluorescence; filed as Kd, often an IC50 or EC50 that approximates it; ≥ and ≤ were set here for values at or beyond the usual limits of such assays; conditions: source organism: Lechiguanas virus
# HLA-B*15:17 [7] = test: as above; conditions: source organism: Lechiguanas virus
# HLA-B*27:03 [8] = test: as above; conditions: source organism: Lechiguanas virus
# HLA-B*39:01 [9] = test: as above; conditions: source organism: Lechiguanas virus
# HLA-A*26:01 [10] = test: as above; conditions: source organism: Lechiguanas virus
# HLA-B*08:01 = test: IEDB peptide-MHC binding, purified MHC/direct/fluorescence; filed as Kd, often an IC50 or EC50 that approximates it; ≥ and ≤ were set here for values at or beyond the usual limits of such assays; conditions: source organism: Orthohantavirus andesense
# HLA-B*48:01 = test: as above; conditions: source organism: Orthohantavirus andesense
# HLA-B*27:05 = test: as above; conditions: source organism: Orthohantavirus andesense
# HLA-A*01:01 = test: as above; conditions: source organism: Orthohantavirus andesense
# HLA-A*11:01 = test: as above; conditions: source organism: Orthohantavirus andesense
# HLA-B*58:01 = test: as above; conditions: source organism: Orthohantavirus andesense
# HLA-A*31:01 = test: as above; conditions: source organism: Orthohantavirus andesense
# HLA-B*40:01 = test: as above; conditions: source organism: Orthohantavirus andesense
# HLA-B*44:02 = test: as above; conditions: source organism: Orthohantavirus andesense
# HLA-B*07:02 = test: as above; conditions: source organism: Orthohantavirus andesense
# [11] = source organism: Giardia lamblia ATCC 50803
# [12] = source organism: Vibrio cholerae O395
# [13] = source organism: Orthohantavirus andesense
# [14] = source organism: Rio Mamore hantavirus
sequence,measurement,setting,value
MHDPHSIPL,Kd,HLA-B*15:01; [11],≥ 20 µM
same,Kd,HLA-A*02:01; [11],≥ 20 µM
same,Kd,HLA-A*29:02; [11],≥ 20 µM
same,Kd,HLA-A*02:19; [11],≥ 20 µM
same,Kd,HLA-A*02:11; [11],≥ 20 µM
same,Kd,HLA-A*03:01; [11],≥ 20 µM
same,Kd,HLA-B*51:01 [1]; [11],≥ 20 µM
same,Kd,HLA-B*15:17 [2]; [11],≥ 20000 nM
same,Kd,HLA-B*57:01; [11],≥ 20 µM
same,Kd,HLA-A*23:01; [11],≥ 20 µM
same,Kd,HLA-A*69:01; [11],≥ 20 µM
same,Kd,HLA-B*27:03 [3]; [11],≥ 20 µM
same,Kd,HLA-A*24:03; [11],≥ 20 µM
same,Kd,HLA-A*02:03; [11],≥ 20 µM
same,Kd,HLA-B*46:01; [11],≥ 20 µM
same,Kd,HLA-A*68:02; [11],≥ 20 µM
same,Kd,HLA-B*18:01; [11],≥ 20 µM
same,Kd,HLA-A*02:12; [11],≥ 20 µM
same,Kd,HLA-A*26:01 [4]; [11],≥ 20 µM
same,Kd,HLA-A*02:16; [11],≥ 20 µM
VVSEIDLQW,Kd,HLA-B*15:01; [12],≥ 20 µM
same,Kd,HLA-A*02:01; [12],≥ 20 µM
same,Kd,HLA-A*29:02; [12],≥ 20 µM
same,Kd,HLA-A*02:19; [12],≥ 20 µM
same,Kd,HLA-A*02:11; [12],≥ 20 µM
same,Kd,HLA-A*03:01; [12],≥ 20 µM
same,Kd,HLA-B*51:01 [1]; [12],≥ 20 µM
same,Kd,HLA-B*15:17 [2]; [12],2 nM
same,Kd,HLA-B*57:01; [12],≥ 20 µM
same,Kd,HLA-A*23:01; [12],≥ 20 µM
same,Kd,HLA-A*69:01; [12],≥ 20 µM
same,Kd,HLA-B*27:03 [3]; [12],≥ 20 µM
same,Kd,HLA-A*24:03; [12],≥ 20 µM
same,Kd,HLA-A*02:03; [12],≥ 20 µM
same,Kd,HLA-B*46:01; [12],≥ 20 µM
same,Kd,HLA-A*68:02; [12],≥ 20 µM
same,Kd,HLA-B*39:01 [5],≥ 20 µM
same,Kd,HLA-B*18:01; [12],≥ 20 µM
same,Kd,HLA-A*02:12; [12],≥ 20 µM
same,Kd,HLA-A*26:01 [4]; [12],≥ 20 µM
same,Kd,HLA-A*02:16; [12],≥ 20 µM
YRRKLTNPA,Kd,HLA-B*51:01 [6],≥ 20 µM
same,Kd,HLA-B*15:17 [7],≥ 20 µM
same,Kd,HLA-B*27:03 [8],≥ 20 µM
same,Kd,HLA-B*39:01 [9],≥ 20 µM
same,Kd,HLA-A*26:01 [10],≥ 20 µM
same,Kd,HLA-B*08:01,1120 nM
same,Kd,HLA-B*15:01; [13],≥ 20 µM
same,Kd,HLA-A*02:01; [13],≥ 20 µM
same,Kd,HLA-B*48:01,≥ 20 µM
same,Kd,HLA-A*29:02; [13],≥ 20 µM
same,Kd,HLA-A*03:01; [13],≥ 20 µM
same,Kd,HLA-B*27:05,≥ 20 µM
same,Kd,HLA-A*01:01,≥ 20 µM
same,Kd,HLA-A*11:01,≥ 20 µM
same,Kd,HLA-B*57:01; [13],≥ 20 µM
same,Kd,HLA-A*23:01; [14],≥ 20 µM
same,Kd,HLA-A*69:01; [13],≥ 20 µM
same,Kd,HLA-B*58:01,≥ 20 µM
same,Kd,HLA-A*31:01,≥ 20 µM
same,Kd,HLA-B*40:01,≥ 20 µM
same,Kd,HLA-A*24:03; [14],≥ 20 µM
same,Kd,HLA-B*46:01; [13],≥ 20 µM
same,Kd,HLA-A*68:02; [14],≥ 20 µM
same,Kd,HLA-B*18:01; [13],≥ 20 µM
same,Kd,HLA-A*02:12; [14],≥ 20 µM
same,Kd,HLA-B*44:02,≥ 20 µM
same,Kd,HLA-B*07:02,≥ 20 µM
